Laboratory results as given in PMC6980855.

How the values were obtained:
[1] = biological target: Bax (single cysteine 126C, Alexa647-labeled, recombinant), Q07812; assay: FRET; settings: chain shown with the change, 20 nM Alexa568-labeled BimL mutant (FRET donor), Alexa647-labeled Bax acceptor
[2] = biological target: Bcl-XL (single cysteine 152C, Alexa647-labeled, recombinant), Q07817-1; assay: FRET; settings: chain shown with the change, 20 nM Alexa568-labeled BimL mutant (FRET donor), Alexa647-labeled Bcl-XL acceptor
Chain of Bcl-XL (single cysteine 152C, Alexa647-labeled, recombinant), Q07817-1 (Q07817 whole entry): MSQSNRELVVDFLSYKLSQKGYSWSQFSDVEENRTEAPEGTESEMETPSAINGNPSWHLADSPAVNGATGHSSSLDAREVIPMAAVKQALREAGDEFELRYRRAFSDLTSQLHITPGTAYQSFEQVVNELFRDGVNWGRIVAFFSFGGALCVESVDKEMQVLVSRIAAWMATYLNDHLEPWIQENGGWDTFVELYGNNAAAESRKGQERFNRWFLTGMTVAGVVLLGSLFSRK

[3] = membranes present (liposomes), apparent Kd, parent: 29±1
[4] = membranes present (liposomes), apparent Kd, parent: 1±1

Chain of Bax (single cysteine 126C, Alexa647-labeled, recombinant), Q07812 (Q07812 whole entry): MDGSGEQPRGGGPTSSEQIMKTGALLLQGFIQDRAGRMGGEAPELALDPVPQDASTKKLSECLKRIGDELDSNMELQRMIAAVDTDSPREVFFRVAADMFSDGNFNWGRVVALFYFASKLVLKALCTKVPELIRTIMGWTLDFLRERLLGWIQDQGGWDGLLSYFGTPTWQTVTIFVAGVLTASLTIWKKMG

Binder	Kd ([1]; in solution, parent: 59±7) [nM]	Kd [1, 3] [nM]	Kd ([2]; in solution, parent: 8±0.4) [nM]	Kd [2, 4] [nM]
BimL (single cysteine Q41C, Alexa568-labeled, recombinant) I132E (protein) MHHHHHHGGSGGTGGSENLYFQGTMAKQPSDVSSECDREGGQLQPAERPPQLRPGAPTSLQTEPCDRSPAPMSCDKSTQTPSPPCQAFNHYLSAMASIRQSQEEPEDLRPEIRIAQELRRIGDEFNETYTRRVFANDYREAEDHPQMVILQLLRFEFRLVWRRH			10	2
BimL (single cysteine Q41C, Alexa568-labeled, recombinant) R130A; R134A (protein) MHHHHHHGGSGGTGGSENLYFQGTMAKQPSDVSSECDREGGQLQPAERPPQLRPGAPTSLQTEPCDRSPAPMSCDKSTQTPSPPCQAFNHYLSAMASIRQSQEEPEDLRPEIRIAQELRRIGDEFNETYTRRVFANDYREAEDHPQMVILQLLAFIFALVWRRH		64		20

The next lines start with the values.

Kd ([1]; in solution, parent: 59±7) [nM]	Kd [1, 3] [nM]	Kd ([2]; in solution, parent: 8±0.4) [nM]	Kd [2, 4] [nM]	Binder
> 1000	> 1000	> 1000	> 1000	BimL (single cysteine Q41C, Alexa568-labeled, recombinant) I90E; L94E; I97E; F101E (protein) MHHHHHHGGSGGTGGSENLYFQGTMAKQPSDVSSECDREGGQLQPAERPPQLRPGAPTSLQTEPCDRSPAPMSCDKSTQTPSPPCQAFNHYLSAMASIRQSQEEPEDLRPEIREAQEERREGDEENETYTRRVFANDYREAEDHPQMVILQLLRFIFRLVWRRH
			5	BimL (single cysteine Q41C, Alexa568-labeled, recombinant) L129E (protein) MHHHHHHGGSGGTGGSENLYFQGTMAKQPSDVSSECDREGGQLQPAERPPQLRPGAPTSLQTEPCDRSPAPMSCDKSTQTPSPPCQAFNHYLSAMASIRQSQEEPEDLRPEIRIAQELRRIGDEFNETYTRRVFANDYREAEDHPQMVILQLERFIFRLVWRRH
	95		2	BimL (single cysteine Q41C, Alexa568-labeled, recombinant) V124E (protein) MHHHHHHGGSGGTGGSENLYFQGTMAKQPSDVSSECDREGGQLQPAERPPQLRPGAPTSLQTEPCDRSPAPMSCDKSTQTPSPPCQAFNHYLSAMASIRQSQEEPEDLRPEIRIAQELRRIGDEFNETYTRRVFANDYREAEDHPQMEILQLLRFIFRLVWRRH
